Measured values reported in patent KR20230168598A (dated 2023).

Biological target: T1, 재조합 인간 TIGIT 단백질 (acrobiosystems, China) (human, UniProt Q495A1 22-141)
T1 construct: Bought recombinant protein; also called hTIGIT
T1 sequence: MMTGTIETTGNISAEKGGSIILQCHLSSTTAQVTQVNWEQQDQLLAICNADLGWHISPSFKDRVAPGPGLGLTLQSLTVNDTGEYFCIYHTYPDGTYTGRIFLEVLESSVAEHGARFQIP
Test: SPR (Biacore T200), multi-cycle kinetics, antibody captured, TIGIT as analyte, 1:1 model

B1: 마우스 항-TIGIT 단클론 항체 3F8 (mouse backbone mIgG1) (antibody, V domains shown)
VH: EVQLQQSGPELVKPGASMKISCKASGYSFTDYIMNWVKQSHGKNLEWIGLSIPYNGGTSYNQKFEGKATLTVDKSSSTAYMELLSLTSEDSAVYYCARGIKGYFAMDYWGQGTSVTVSS
VL: DVVVTQTPLSLPVSFGDQVSISCRSSQSLVNSFGKTYLSWFLHKPGQSPQLIMYGVSNRFSGVPDRFSGSGSGTDFTLKISTIKPEDLGMYYCLQGTHQPWTFGGGTKLEIK
notes: also called 항-TIGIT 3F8 항체; 클론 3F8
Kd: 0.986 nM | koff: 0.000216 s⁻¹ | kon: 219000 M⁻¹ s⁻¹

B2: 마우스 항-TIGIT 단클론 항체 2B7 (mouse backbone mIgG1) (antibody, V domains shown)
VH: EVQLQQSGPELVKPGASVKISCKTSGSTFTEYTMHWVKQSHGKSLEWIGGLNPNNGGTSYNQRFKDRATLTVDKSSSTAYMELRSLTSEDSAVYYCTRGTYYDYSFAYWGQGTLVTVSA
VL: DIVMTQSHKFMSTSVGDRVSITCKASHYVSTAVAWYQQKPGQSPKLLIYSPSYRYTGVPDRFTGSGSGTDFTFTISSVQAEDLAVYYCHQHYSTPWTFGGGTKLEIK
notes: also called 항-TIGIT 2B7 항체; 클론 2B7
Kd: 1.89 nM | koff: 0.000445 s⁻¹ | kon: 235000 M⁻¹ s⁻¹
